In CN102167743A (BAIMAIBO PHARMACEUTICAL CO LTD, dated 2011):

Target: T1, EGFR (UniProt P00533 25-645, limits assumed)
T1 construct: also called 表皮生长因子受体
Test: not described (summary of experimental results; compared with C225, 2F8 and 3C6)

B1: 全人源抗EGFR抗体15H8 (antibody, human IgG1, kappa, V domains shown)
VH: EVQLVESGGGLVQPGGSLRLSCAASGFTFSSYAMHWVRQAPGKGLEYVSAISSNGGSTYYANSVKGRFTISRDNSKNTLYLQMGSLRAEDMAVYYCAREGYSSSWYHNWFDSWGQGTLVTVSS
VL: DIVMTQTPLSLPVTPGEPASISCRSSQSLLDSDDGNTYLDWYLQKPGQSPQLLIYTLSYRASGVPDRFSGSGSGTDFTLKISRVEAEDVGVYYCMQRIEFPSLYTFGQGTKLEIKR
notes: Whole human antibody expressed in CHO-K1 and purified on Protein A. The expression genes carry a signal peptide, printed only as nucleotides; also called 15H8抗体; 全人源抗体15H8
binding result: binds
